According to the Immune Epitope Database (IEDB):

What follows are sequences tested against HLA-A*02:01 (assay: IEDB peptide-MHC binding, purified MHC/competitive/radioactivity; ≥ and ≤ were set here for values at or beyond the usual limits of such assays). Settings: source organism: Homo sapiens.

| Sequence | IC50 |
| --- | --- |
| GIMIGVLVGV | 36.8 nM |
| KIWEELSML | 167 nM |
| KVAELVHFLL | 55.6 nM |
| LLGICLTSTV | 102 nM |

The remaining lines, values ahead:

| IC50 | Sequence |
| --- | --- |
| 139 nM | ALCRWGLLLA |
| 54.3 nM | HLFIYATCLGL |
| 9.8 nM | KMVELVHFL |
